Measured values as given in patent publication US20150072922A1, “RNASE 7 ANTIMICROBIAL PEPTIDES” (THE RESEARCH INSTITUTE AT NATIONWIDE CHILDREN'S HOSPITAL, priority 2012, published 2015).
“Also recorded” adds a separate entry of the source. Marks after values point to notes of the source that are not given here. No end group written: not given here. *: point of attachment. His tag = six-residue histidine tag at the N-terminus, N[C@@H](Cc1c[nH]cn1)C(=O)N[C@@H](Cc1c[nH]cn1)C(=O)N[C@@H](Cc1c[nH]cn1)C(=O)N[C@@H](Cc1c[nH]cn1)C(=O)N[C@@H](Cc1c[nH]cn1)C(=O)N[C@@H](Cc1c[nH]cn1)C(=O)*

Assays:
[1] = system: Proteus mirabilis (ATCC 7002); test: Antimicrobial kill (microdilution) assay, MIC/MBC by CFU count; format: cell-based; settings: 3 hours, 0.1×PBS; for P. mirabilis MIC: lowest concentration that inhibits the growth of 90% of the inoculation; for P. mirabilis MBC: minimum bactericidal concentration
Procedure: Uropathogenic Escherichia coli (UTI89) was grown in Luria broth (LB) medium and plated on LB-agar. Uropathogenic Staphylococcus saprophyticus (ATCC 15305) was grown in LB and plated on Trypticase Soy Agar with 5% sheep blood (Fisher Scientific, Pittsburgh, Pa., USA). Uropathogenic Proteus mirabilis (ATCC 7002) was grown in LB and plated on MacConkey II Agar (Fisher Scientific, Pittsburgh, Pa., USA). These organisms were chosen as the primary organisms that account for a majority of Gram-negative and Gram-positive urinary tract infections (UTI). Anti-RNase 7 antibody was generated in rabbit with recombinant human RNase 7 (Biomatik, Wilmington, Del., USA)
(§1) Antimicrobial activities of the recombinant peptides were estimated with a microdilution assay. Briefly, the test bacteria (10^4 CFUs) were incubated with various concentrations of RNase 7 and each fragment in 50 ul 0.1×PBS buffer for 3 hours at 37° C. After incubation on Agar plates overnight at 37° C., the number of colony-forming units (CFUs) at each peptide concentration was determined. Using untreated bacterial aliquots as baseline, the minimum inhibition concentration (MIC) was defined as the lowest concentration that inhibits the growth of 90% of the inoculation, and the minimum bactericidal concentration (MBC) was defined as the lowest concentration at which less than 99.99% of the initial inoculum is viable.

[2] = system: Staphylococcus saprophyticus (ATCC 15305); test: as above; format: cell-based; settings: for MIC/MBC fold higher than full-length protein, S. saprophyticus: compared to full-length RNase 7; for S. saprophyticus MIC: lowest concentration that inhibits the growth of 90% of the inoculation; for S. saprophyticus MIC / S. saprophyticus MBC: 3 hours, 0.1×PBS; for S. saprophyticus MBC: minimum bactericidal concentration
Procedure: (§2) The antimicrobial activity of RNase 7 and its fragments was estimated using a microdilution assay. Briefly, test bacteria (10^5) were incubated with several concentrations of RNase 7 and each fragment in 50 μl 0.1×PBS buffer for 3 hours in a 37° C. incubator. Each reaction was plated on the appropriate medium and grew overnight at 37° C. The antimicrobial activity was determined by the number of colony-forming units (CFUs) the following day. The minimum inhibition concentration (MIC) is defined as the lowest concentration that inhibits the growth of 90% of the inoculation and the minimum bactericidal concentration (MB C) is defined as the lowest concentration at which less than 99.99% of the initial inoculum is viable.
as §1

[3] = system: Escherichia coli (UTI89); test: as above; format: cell-based; settings: for MIC/MBC fold higher than full-length protein, E. coli: compared to full-length RNase 7; for E. coli MIC: lowest concentration that inhibits the growth of 90% of the inoculation; for E. coli MIC / E. coli MBC: 3 hours, 0.1×PBS; for E. coli MBC: minimum bactericidal concentration; for antimicrobial activity against E. coli (in words): MIC/MBC based, mostly compared to full-length RNase 7
Procedure: as §2, §1

[4] = system: Escherichia coli (UTI89); test: SYTOX Green bacterial cell death / membrane permeabilization assay; format: cell-based; settings: 3 hours, FIG. 1, compared to full-length
Procedure: (§3) Assays of the permeabilization of bacterial membrane were performed with SYTOX green nucleic acid stain (Invitrogen™). The overnight cultures of bacteria were centrifuged at 5000 rpm for 5 min, the pellets were then washed with water and resuspended in water with an OD=0.5. 90 μl of each bacteria were then incubated with 10 μl of peptides with different concentrations for 3 hours at 37° C. in a 96-well plate. 100 μl of 2 μM SYTOX Green (Invitrogen™) were then added to each well and incubated in dark for 15 min. SYTOX green penetrates cells with compromised membranes not the membranes of live cells. The increase of fluorescence was measured using […] filters for excitation and emission wavelengths, respectively. Bacteria alone and bacteria treated with 70% ethanol were used as controls and the fluorescence from each was recorded as Fmin and Fmax. The percentage of cell death at each concentration for each fragment was calculated as below: death %=(F−Fmin)/(Finax−Fmin)*100%
(§4) To confirm the accuracy of our MIC/MBC data, cell death assays using SYTOX Green (Invitrogen), which selectivity labels nucleic acids of cells with compromised membranes of dead/dying cells were performed. Overnight cultures of bacteria were centrifuged at 5000 rpm for 5 minutes. Pellets were then washed with PBS (pH 7.4) and resuspended in PBS to an OD600 of 0.5 for Escherichia coli (UTI89) and OD600 of 0.8 for Staphylococcus saprophyticus. Per manufacturerer's instructions, 90 μl of each bacteria strain were incubated with 100 μl of 2 uM SYTOX Green for 15 minutes. Ten microliters of peptides at various concentrations were added for 3 hours at 37° C. in a 96-well plate. Compromised bacterial membranes of dead/dying cells will be labeled while lives cells are not labeled as noted by Invitrogen. Fluorescence was measured using 485 and 520-nm filters for excitation and emission wavelengths, respectively. Untreated bacteria were used as a 100% live control, and fluorescence was noted as Fmin. To elicit complete killing, bacteria were treated with 70% ethanol for 1 hour. This experimental group's fluorescence was noted as Fmax. The percentage of cell death at each concentration for each fragment was calculated as (Ffragment−Fmin)/(Fmax−Fmin)×100%.

[5] = system: Staphylococcus saprophyticus; test: as above; format: cell-based; settings: 3 hours, FIG. 2, compared to full-length
Procedure: as §3, §4

[6] = system: uropathogenic E. coli; test: RNase7 antibacterial activity, MIC on strains isolated from positive urine cultures; format: cell-based, Escherichia coli; settings: uropathogenic E. coli isolated from urine cultures (N=3)
Source text: Laboratory bacterial strains from the American Type Culture Collection (ATCC, Manassas, Va.) and strains isolated from positive urine cultures were obtained from the Microbiology Laboratory at Nationwide Children's Hospital.

Molecule	P. mirabilis MIC [1]	P. mirabilis MBC [1]	MIC/MBC fold higher than full-length protein, S. saprophyticus [2]	S. saprophyticus MIC [2]	S. saprophyticus MBC [2]	MIC/MBC fold higher than full-length protein, E. coli [3]	E. coli MIC [3]	E. coli MBC [3]	membrane permeabilization and death, E. coli (in words) [4]	membrane permeabilization and death, S. saprophyticus (in words) [5]	antimicrobial activity against S. saprophyticus (in words) ([2]; MIC/MBC based, mostly compared to full-length RNase 7)	MBC against E. coli [3]	MIC against E. coli [3]	antimicrobial activity against E. coli (in words) [3]	antimicrobial activity against E. coli (in words) ([3]; listed as 1-71)	mean inhibitory concentration (MIC) [6]
F:46-97: recombinant middle RNase 7 fragment, amino acids 46 to 97, beta sheets 2-4, N-terminal His tag ({His tag}-EPFSSVAATCQTPKIACKNGDKNCHQSHGPVSLTMCKLTSGKYPNCRYKEKR; ends and bridges not checked)	3.5 µM	>3.5** uM	two-fold higher	0.44 µM	1.75 µM	two-fold higher	0.88 µM	1.75 µM	enhanced permeabilization and death compared to the full-length protein; also recorded: potent membrane penetrating activity	no activity compared to full length protein; also recorded: negligible activity against S. saprophyticus	–	–	–	–	–	–
F:1-71: recombinant N-terminal RNase 7 fragment, amino acids 1 to 71 (SEQ ID NO: 3), N-terminal His tag (protein, listed as Homo sapiens, N-terminal His tag) KPKGMTSSQWFKIQHMQPSPQACNSAMKNINKHTKRCKDLNTFLHEPFSSVAATCQTPKIACKNGDKNCHQ	.44 µM	.88 µM	–	0.23 µM	>0.92* uM	seven-fold higher	1.93** uM	3.86 µM	lower permeability against E. coli	shows permeability against S. Saprophyticus	shows antimicrobial activity against S. saprophyticus; also recorded: same activity to S. saprophyticus as full length protein	3.86 µM	1.93 µM	lower activity against E. coli; also recorded: markedly reduced activity against E. coli	least activity; also recorded: significantly decreased activity	0.63 µM
F:30-97: recombinant middle RNase 7 fragment, amino acids 30 to 97, first four beta sheets, N-terminal His tag (protein, ends and bridges not checked, recombinant middle RNase 7 fragment, amino acids 30 to 97, first four beta sheets, N-terminal His tag) {His tag}-INKHTKRCKDLNTFLHEPFSSVAATCQTPKIACKNGDKNCHQSHGPVSLTMCKLTSGKYPNCRYKEKR	>3.5** uM	>3.5** uM	two-fold higher	0.44 µM	1.75* uM	two-fold higher	0.44 µM	0.88 µM	less activity when compared with full-length RNase 7	less activity when compared with full-length RNase 7	–	–	–	–	–	–
